Laboratory results reported in publication PMC4615246 (Nucleus, 2015).

B1: Nup62 (endogenous) (natural protein)
chain: MSGFNFGGTGAPTGGFTFGTAKTATTTPATGFSFSTSGTGGFNFGAPFQPATSTPSTGLFSLATQTPATQTTGFTFGTATLASGGTGFSLGIGASKLNLSNTAATPAMANPSGFGLGSSNLTNAISSTVTSSQGTAPTGFVFGPSTTSVAPATTSGGFSFTGGSTAQPSGFNIGSAGNSAQPTAPATLPFTPATPAATTAGATQPAAPTPTATITSTGPSLFASIATAPTSSATTGLSLCTPVTTAGAPTAGTQGFSLKAPGAASGTSTTTSTAATATATTTSSSSTTGFALNLKPLAPAGIPSNTAAAVTAPPGPGAAAGAAASSAMTYAQLESLINKWSLELEDQERHFLQQATQVNAWDRTLIENGEKITSLHREVEKVKLDQKRLDQELDFILSQQKELEDLLSPLEELVKEQSGTIYLQHADEEREKTYKLAENIDAQLKRMAQDLKDIIEHLNTSGAPADTSDPLQQICKILNAHMDSLQWIDQNSALLQRKVEEVTKVCEGRRKEQERSFRITFD
B2: Nup85 (endogenous) (natural protein)
chain: MEELDGEPTVTLIPGVNSKKNQMYFDWGPGEMLVCETSFNKKEKSEMVPSCPFIYIIRKDVDVYSQILRKLFNESHGIFLGLQRIDEELTGKSRKSQLVRVSKNYRSVIRACMEEMHQVAIAAKDPANGRQFSSQVSILSAMELIWNLCEILFIEVAPAGPLLLHLLDWVRLHVCEVDSLSADVLGSENPSKHDSFWNLVTILVLQGRLDEARQMLSKEADASPASAGICRIMGDLMRTMPILSPGNTQTLTELELKWQHWHEECERYLQDSTFATSPHLESLLKIMLGDEAALLEQKELLSNWYHFLVTRLLYSNPTVKPIDLHYYAQSSLDLFLGGESSPEPLDNILLAAFEFDIHQVIKECSIALSNWWFVAHLTDLLDHCKLLQSHNLYFGSNMREFLLLEYASGLFAHPSLWQLGVDYFDYCPELGRVSLELHIERIPLNTEQKALKVLRICEQRQMTEQVRSICKILAMKAVRNNRLGSALSWSIRAKDAAFATLVSDRFLRDYCERGCFSDLDLIDNLGPAMMLSDRLTFLGKYREFHRMYGEKRFADAASLLLSLMTSRIAPRSFWMTLLTDALPLLEQKQVIFSAEQTYELMRCLEDLTSRRPVHGESDTEQLQDDDIETTKVEMLRLSLARNLARAIIREGSLEGS
B3: Nup160 (endogenous) (natural protein)
chain: MLHLSAAPPAPPPEVTATARPCLCSVGRRGDGGKMAAAGALERSFVELSGAERERPRHFREFTVCSIGTANAVAGAVKYSESAGGFYYVESGKLFSVTRNRFIHWKTSGDTLELMEESLDINLLNNAIRLKFQNCSVLPGGVYVSETQNRVIILMLTNQTVHRLLLPHPSRMYRSELVVDSQMQSIFTDIGKVDFTDPCNYQLIPAVPGISPNSTASTAWLSSDGEALFALPCASGGIFVLKLPPYDIPGMVSVVELKQSSVMQRLLTGWMPTAIRGDQSPSDRPLSLAVHCVEHDAFIFALCQDHKLRMWSYKEQMCLMVADMLEYVPVKKDLRLTAGTGHKLRLAYSPTMGLYLGIYMHAPKRGQFCIFQLVSTESNRYSLDHISSLFTSQETLIDFALTSTDIWALWHDAENQTVVKYINFEHNVAGQWNPVFMQPLPEEEIVIRDDQDPREMYLQSLFTPGQFTNEALCKALQIFCRGTERNLDLSWSELKKEVTLAVENELQGSVTEYEFSQEEFRNLQQEFWCKFYACCLQYQEALSHPLALHLNPHTNMVCLLKKGYLSFLIPSSLVDHLYLLPYENLLTEDETTISDDVDIARDVICLIKCLRLIEESVTVDMSVIMEMSCYNLQSPEKAAEQILEDMITIDVENVMEDICSKLQEIRNPIHAIGLLIREMDYETEVEMEKGFNPAQPLNIRMNLTQLYGSNTAGYIVCRGVHKIASTRFLICRDLLILQQLLMRLGDAVIWGTGQLFQAQQDLLHRTAPLLLSYYLIKWGSECLATDVPLDTLESNLQHLSVLELTDSGALMANRFVSSPQTIVELFFQEVARKHIISHLFSQPKAPLSQTGLNWPEMITAITSYLLQLLWPSNPGCLFLECLMGNCQYVQLQDYIQLLHPWCQVNVGSCRFMLGRCYLVTGEGQKALECFCQAASEVGKEEFLDRLIRSEDGEIVSTPRLQYYDKVLRLLDVIGLPELVIQLATSAITEAGDDWKSQATLRTCIFKHHLDLGHNSQAYEALTQIPDSSRQLDCLRQLVVVLCERSQLQDLVEFPYVNLHNEVVGIIESRARAVDLMTHNYYELLYAFHIYRHNYRKAGTVMFEYGMRLGREVRTLRGLEKQGNCYLAALNCLRLIRPEYAWIVQPVSGAVYDRPGASPKRNHDGECTAAPTNRQIEILELEDLEKECSLARIRLTLAQHDPSAVAVAGSSSAEEMVTLLVQAGLFDTAISLCQTFKLPLTPVFEGLAFKCIKLQFGGEAAQAEAWAWLAANQLSSVITTKESSATDEAWRLLSTYLERYKVQNNLYHHCVINKLLSHGVPLPNWLINSYKKVDAAELLRLYLNYDLLEEAVDLVSEYVDAVLGKGHQYFGIEFPLSATAPMVWLPYSSIDQLLQALGENSANSHNIALSQKILDKLEDYQQKVDKATRDLLYRRTL
B4: Nup53 (endogenous) (natural protein)
chain: MAAFAVEPQGPALGSEPMMLGSPTSPKPGVNAQFLPGFLMGDLPAPVTPQPRSISGPSVGVMEMRSPLLAGGSPPQPVVPAHKDKSGAPPVRSIYDDISSPGLGSTPLTSRRQPNISVMQSPLVGVTSTPGTGQSMFSPASIGQPRKTTLSPAQLDPFYTQGDSLTSEDHLDDSWVTVFGFPQASASYILLQFAQYGNILKHVMSNTGNWMHIRYQSKLQARKALSKDGRIFGESIMIGVKPCIDKSVMESSDRCALSSPSLAFTPPIKTLGTPTQPGSTPRISTMRPLATAYKASTSDYQVISDRQTPKKDESLVSKAMEYMFGW

These binders were tested against T1, LacI-CFP-Nup107 (human, UniProt P57740 1-925) (assay: LacI/LacO array recruitment in cells).
T1 sequence: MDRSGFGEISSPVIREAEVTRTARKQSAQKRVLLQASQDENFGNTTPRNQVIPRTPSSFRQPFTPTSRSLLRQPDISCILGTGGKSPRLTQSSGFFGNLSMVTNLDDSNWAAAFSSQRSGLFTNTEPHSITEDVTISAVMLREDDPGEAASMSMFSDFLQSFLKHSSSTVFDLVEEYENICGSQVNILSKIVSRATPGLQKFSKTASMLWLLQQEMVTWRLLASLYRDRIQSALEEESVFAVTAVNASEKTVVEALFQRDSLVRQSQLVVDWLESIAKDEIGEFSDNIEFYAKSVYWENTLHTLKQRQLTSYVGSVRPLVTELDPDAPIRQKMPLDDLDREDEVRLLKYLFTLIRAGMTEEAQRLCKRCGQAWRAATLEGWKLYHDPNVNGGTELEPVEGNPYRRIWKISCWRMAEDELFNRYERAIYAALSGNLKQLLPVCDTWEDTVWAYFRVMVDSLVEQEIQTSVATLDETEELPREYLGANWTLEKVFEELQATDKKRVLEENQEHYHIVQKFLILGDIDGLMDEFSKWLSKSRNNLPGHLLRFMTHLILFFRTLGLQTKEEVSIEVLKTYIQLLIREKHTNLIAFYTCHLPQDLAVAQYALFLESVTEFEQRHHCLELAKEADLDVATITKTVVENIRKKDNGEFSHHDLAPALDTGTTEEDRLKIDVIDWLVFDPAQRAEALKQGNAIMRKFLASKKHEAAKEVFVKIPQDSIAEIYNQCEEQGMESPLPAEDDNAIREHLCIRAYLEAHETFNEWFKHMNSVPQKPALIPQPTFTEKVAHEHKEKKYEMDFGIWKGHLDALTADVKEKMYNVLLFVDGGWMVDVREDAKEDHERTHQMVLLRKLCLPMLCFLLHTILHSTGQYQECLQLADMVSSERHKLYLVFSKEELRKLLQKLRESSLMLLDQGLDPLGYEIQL
In the case of B1, the “percent of transfected cells showing colocalization” value (“percent” for short) is reported as 24%.
With B2 the “percent” value was 88%.
With B3 the “percent” value was 39%.

These binders were tested against T2, LacI-CFP-Nup153 (human, UniProt P49790 1-1475) (assay: LacI/LacO array recruitment in cells).
T2 sequence: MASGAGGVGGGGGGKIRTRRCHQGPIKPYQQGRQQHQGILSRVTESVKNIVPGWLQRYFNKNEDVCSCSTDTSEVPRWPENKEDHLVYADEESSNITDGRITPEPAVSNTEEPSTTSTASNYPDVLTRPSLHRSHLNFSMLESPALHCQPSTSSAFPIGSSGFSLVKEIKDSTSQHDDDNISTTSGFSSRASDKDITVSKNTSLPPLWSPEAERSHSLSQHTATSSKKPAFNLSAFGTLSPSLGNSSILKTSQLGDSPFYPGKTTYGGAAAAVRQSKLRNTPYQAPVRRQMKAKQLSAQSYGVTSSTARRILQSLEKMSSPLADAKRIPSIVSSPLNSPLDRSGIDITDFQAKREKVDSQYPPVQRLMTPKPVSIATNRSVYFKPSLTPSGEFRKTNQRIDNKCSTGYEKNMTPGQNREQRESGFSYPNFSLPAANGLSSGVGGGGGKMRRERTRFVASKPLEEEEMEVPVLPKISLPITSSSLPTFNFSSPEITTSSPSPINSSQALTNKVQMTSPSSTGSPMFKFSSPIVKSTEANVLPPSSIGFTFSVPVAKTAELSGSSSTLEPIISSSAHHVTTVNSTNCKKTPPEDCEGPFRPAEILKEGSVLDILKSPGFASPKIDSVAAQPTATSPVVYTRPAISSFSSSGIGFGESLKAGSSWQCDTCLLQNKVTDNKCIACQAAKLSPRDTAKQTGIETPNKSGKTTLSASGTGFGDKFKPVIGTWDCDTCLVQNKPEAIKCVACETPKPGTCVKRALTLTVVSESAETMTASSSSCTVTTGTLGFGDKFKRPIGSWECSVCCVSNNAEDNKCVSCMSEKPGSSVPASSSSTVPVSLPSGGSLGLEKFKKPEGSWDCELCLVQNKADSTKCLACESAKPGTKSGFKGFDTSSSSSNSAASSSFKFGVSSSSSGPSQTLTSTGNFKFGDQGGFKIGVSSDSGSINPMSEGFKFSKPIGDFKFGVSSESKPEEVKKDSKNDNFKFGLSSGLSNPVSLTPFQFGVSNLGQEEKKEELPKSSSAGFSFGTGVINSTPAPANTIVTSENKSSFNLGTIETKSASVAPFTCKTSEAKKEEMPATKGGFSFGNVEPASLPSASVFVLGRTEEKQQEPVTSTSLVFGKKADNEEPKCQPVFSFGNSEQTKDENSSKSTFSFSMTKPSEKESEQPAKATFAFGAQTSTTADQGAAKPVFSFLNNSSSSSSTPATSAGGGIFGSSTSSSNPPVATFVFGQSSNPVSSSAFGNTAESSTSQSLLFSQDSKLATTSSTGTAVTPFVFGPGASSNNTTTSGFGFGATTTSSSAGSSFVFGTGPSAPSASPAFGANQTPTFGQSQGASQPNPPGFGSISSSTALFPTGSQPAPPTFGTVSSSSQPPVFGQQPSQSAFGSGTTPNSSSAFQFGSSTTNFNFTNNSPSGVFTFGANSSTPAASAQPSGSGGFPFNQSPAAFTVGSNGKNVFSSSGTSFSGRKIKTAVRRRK
For B4, the “percent” value was 14%.
For B1, the “percent” value was 56%.
B2 was tested, and the “percent” value was 58%.
In the case of B3, the “percent” value is reported as 33%.
